Reference: EP3168228A1 (Spiber Technologies AB, dated 2017)

Columns and labels:
[1] = biological target: wildtype NT (NTwt), N-terminal fragment of Euprosthenops australis major spidroin 1 (MaSp1) (Euprosthenops australis); test: tryptophan fluorescence ratio 339/351 nm against pH, 5 µM protein, two-state fit of the monomer-dimer equilibrium
[2] = biological target: the molecule itself; test: gel filtration on Superdex-200, self-association
[3] = biological target: the molecule itself; test: gel filtration in 20 mM Tris, pH 8, self-association
[4] = biological target: the molecule itself; test: SDS-PAGE under non-reducing conditions after thrombin cleavage, self-association
[5] = biological target: the molecule itself; test: tryptophan fluorescence ratio 339/351 nm against pH (self-association, dimerization)

B1: wildtype NT (NTwt), N-terminal fragment of Euprosthenops australis major spidroin 1 (MaSp1) (protein)
chain: SHTTPWTNPGLAENFMNSFMQGLSSMPGFTASQLDDMSTIAQSMVQSIQSLAAQGRTSPNKLQALNMAFASSMAEIAASEEGGGSLSTKTSSIASAMSNAFLQTTGVVNQPFINEITQLVSMFAQAGMNDVSA
- pKa of dimerization [1]: 6.5 pH

B2: NTD40K/K65D-β17 fusion protein (other)
chain: MGHHHHHHMSHTTPWTNPGLAENFMNSFMQGLSSMPGFTASQLDKMSTIAQSMVQSIQSLAAQGRTSPNDLQALNMAFASSMAEIAASEEGGGSLSTKTSSIASAMSNAFLQTTGVVNQPFINEITQLVSMFAQAGMNDVSAGNSLVPRGSMGEQKLISEEDLGMQISMDYEIKFHGDGDNFDLNLDDSGGDLQLQIRGPGGRVHVHIHSSSGKVDFHVNNDGGDVEVKMH
- binding result [2]: binds

B3: NTwt-Bri2113-231 fusion protein (other)
chain: MGHHHHHHMSHTTPWTNPGLAENFMNSFMQGLSSMPGFTASQLDDMSTIAQSMVQSIQSLAAQGRTSPNKLQALNMAFASSMAEIAASEEGGGSLSTKTSSIASAMSNAFLQTTGVVNQPFINEITQLVSMFAQAGMNDVSAGNSLVPRGSQTIEENIKIFEEEEVEFISVPVPEFADSDPANIVHDFNKKLTAYLDLNLDKCYVIPLNTSIVMPPRNLLELLINIKAGTYLPQSYLIHEHMVITDRIENIDHLGFFIYRLCHDKETYKL
notes: also called NTwt-Bri2-BRICHOS
- binding result [3]: binds

B4: NTD40K/K65D-Bri2113-231 fusion protein (other)
chain: MGHHHHHHMSHTTPWTNPGLAENFMNSFMQGLSSMPGFTASQLDKMSTIAQSMVQSIQSLAAQGRTSPNDLQALNMAFASSMAEIAASEEGGGSLSTKTSSIASAMSNAFLQTTGVVNQPFINEITQLVSMFAQAGMNDVSAGNSLVPRGSQTIEENIKIFEEEEVEFISVPVPEFADSDPANIVHDFNKKLTAYLDLNLDKCYVIPLNTSIVMPPRNLLELLINIKAGTYLPQSYLIHEHMVITDRIENIDHLGFFIYRLCHDKETYKL
notes: also called NTD40K/K65D-Bri2-BRICHOS
- binding result [3]: binds

B5: Bri2113-231 protein (Bri2-BRICHOS), truncated BRICHOS domain of Bri2 (other)
chain: QTIEENIKIFEEEEVEFISVPVPEFADSDPANIVHDFNKKLTAYLDLNLDKCYVIPLNTSIVMPPRNLLELLINIKAGTYLPQSYLIHEHMVITDRIENIDHLGFFIYRLCHDKETYKL
notes: Released from the NT fusion proteins by thrombin; A 12 kDa band is said to be a truncated form, probably cleaved unspecifically by thrombin; also called Bri2 BRICHOS domain
- binding result [4]: binds

B6: NTD40K/K65D, charge-reversed double mutant of the NT fragment of Euprosthenops australis MaSp1 (other)
chain: SHTTPWTNPGLAENFMNSFMQGLSSMPGFTASQLDKMSTIAQSMVQSIQSLAAQGRTSPNDLQALNMAFASSMAEIAASEEGGGSLSTKTSSIASAMSNAFLQTTGVVNQPFINEITQLVSMFAQAGMNDVSA
notes: also called charge-reversed NT mutant; mutant NT
- binding result [5]: no binding (tested: 5 µM protein, pH 5.6-8.0)
